Reference: doi:10.1101/2022.06.30.497818

Biological target: GST-tagged CDK2 (human cyclin-dependent kinase 2, 1-298) (human) (UniProt P24941)
Assay: SPR

Kd: 2.8 nM
Substance: Bovine cyclin A (171-432 with a C-terminal 6His tag) (from UniProt P30274 171-430) (domain or fragment)
